Results published in paper PMC3848071 (Acta Naturae, 2013).

Columns and labels:
MGL from C. sporogenes = target: T1, MGL from C. sporogenes (Clostridium sporogenes, UniProt A0A7X5SZI3); type: biochemical; conditions: read-out: MGL from C. sporogenes / Кm
T1 construct: gene megL

MGL from C. tetani = target: T2, MGL from C. tetani (Clostridium tetani, UniProt Q890V5); conditions: read-out: MGL from C. tetani / Кm
T2 construct: gene CTC_02530

MGL from P. gingivalis = MGL from P. gingivalis (Porphyromonas gingivalis, UniProt Q7MX71); conditions: read-out: MGL from P. gingivalis / Кm
CCSC[C@H](N)C(=O)O = assay: purified protein
CSCC[C@H](N)C(=O)O = assay: purified protein
[1] = test system: C[S+]([O-])CC[C@H](N)C(=O)O; assay: purified protein
[2] = test system: N[C@@H](CSCc1ccccc1)C(=O)O; assay: purified protein

| Compound | Km (MGL from C. sporogenes) | Km (MGL from C. tetani) | Km (MGL from P. gingivalis) | Km (CCSC[C@H](N)C(=O)O) | kcat/Km (CCSC[C@H](N)C(=O)O) | Km (CSCC[C@H](N)C(=O)O) | kcat/Km (CSCC[C@H](N)C(=O)O) | Km [1] | kcat/Km [1] | Km [2] | kcat/Km [2] |
| --- | --- | --- | --- | --- | --- | --- | --- | --- | --- | --- | --- |
| CCSCC[C@H](N)C(=O)O [S-Et-L-Hcy] | 278 µM | 545 µM | 930 µM |  |  |  |  |  |  |  |  |
| MGL from P. gingivalis (Porphyromonas gingivalis W83) |  |  |  | 2170 µM | 3710 M⁻¹ s⁻¹ | 1770 µM | 2200 M⁻¹ s⁻¹ | 12220 µM | 413 M⁻¹ s⁻¹ | 1470 µM | 3940 M⁻¹ s⁻¹ |
| MGL from C. tetani (Clostridium tetani E88) |  |  |  |  |  | 947 µM | 12700 M⁻¹ s⁻¹ |  |  |  |  |
